In the supplement of paper PMC10126150:
± gives the standard deviation of the averaged measurements.

Test system: ATP
Experiment: switch fluorescence ratio, 500 uM ATP over buffer (Cy3 cluster intensity, sum of 5 cycles each) (fold (ratio)); higher = stronger signal-on switching upon ATP binding; sequences stand for … in TCGTCGGCAGCGTCAGATGTGTATAAGAGACAGTTTTTTTTTTTTTTTTTTTTTTTTT…TC
Conditions: aptamer strand: ATP DNA aptamer (quencher-CACCTGGGGGAGTATTGCGGAGGAAGG + anchor), 100 nM annealed; ATP concentration: 500 uM
Method in brief: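 After annealing to 100 nM quencher-labelled ATP aptamer, Cy3-labelled switching-strand clusters on a modified Illumina MiSeq flow-cell were imaged in selection buffer. A second image followed after 15 min with 500 uM ATP at 22 °C, and five such buffer/ATP cycles were done, each separated by NaOH stripping and re-annealing. The fluorescence ratio, averaged per switch-domain sequence, is summed target-cycle over summed buffer-cycle Cy3 intensity per cluster, with clusters outside 100-1000 RFU excluded.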
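Also: ATP exposure 15 min at 22 °C before imaging.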

Sequence	switch fluorescence ratio
AGGGCATTAG	1 ± 0.1
AGGGCCGGTC	1.06 ± 0.04
AGGGCGGCTG	0.985 ± 0.024
AGGGCGGGGA	1.01 ± 0.058
AGGGCGGGGC	0.944 ± 0.061
AGGGCGGTAT	1.0286 ± 0.00059
AGGGCGGTCT	1.07 ± 0.18
AGGGCGTAAG	0.9716 ± 0.0055
AGGGCGTTTC	1.009 ± 0.0032
AGGGCTCGTT	0.9801 ± 0.0094
AGGGCTGCTA	0.996 ± 0.046
AGGGCTTGCT	0.987 ± 0.038
AGGGGAAAAG	0.993 ± 0.049
AGGGGAAAGT	0.954 ± 0.052
AGGGGAATCG	1.01 ± 0.016
AGGGGACGAT	0.9887 ± 0.0056
AGGGGAGGTA	0.965 ± 0.021
AGGGGAGTTG	0.995 ± 0.027
AGGGGAGTTT	1 ± 0.041
AGGGGCAGAG	1.06 ± 0.092
AGGGGCCCGT	0.99 ± 0.038
AGGGGCGACT	0.984 ± 0.03
AGGGGCGGGT	1.23 ± 0.46
AGGGGCGTAA	1 ± 0.05
AGGGGCGTGC	0.977 ± 0.015

Sequence	switch fluorescence ratio
AGGGGCTATG	1.01 ± 0.032
AGGGGCTGTG	0.9991 ± 0.0074
AGGGGGAAAC	1.01 ± 0.027
AGGGGGAACT	1.03 ± 0.033
AGGGGGACCC	1 ± 0.058
AGGGGGAGCT	1.005 ± 0.0056
AGGGGGAGTG	0.987 ± 0.036
AGGGGGATTA	0.993 ± 0.019
AGGGGGCCTT	1.0113 ± 0.00015
AGGGGGGAAA	1.01 ± 0.027
AGGGGGGCAG	0.987 ± 0.032
AGGGGGGGCC	0.992 ± 0.038
AGGGGGGGCT	0.985 ± 0.024
AGGGGGGGGG	1.02 ± 0.072
AGGGGGGTAC	0.991 ± 0.041
AGGGGGGTTC	0.994 ± 0.023
AGGGGGTACA	1.01 ± 0.016
AGGGGGTGTT	1.02 ± 0.015
AGGGGGTTGG	1 ± 0.032
AGGGGTAAGA	1.01 ± 0.032
AGGGGTAGGA	0.99 ± 0.034
AGGGGTAGGT	0.982 ± 0.019
AGGGGTATGC	0.979 ± 0.033
AGGGGTCCGT	0.969 ± 0.018
AGGGGTGTCC	1.01 ± 0.029

Sequence	switch fluorescence ratio
AGGGGTTAGT	0.999 ± 0.036
AGGGGTTATA	1.01 ± 0.024
AGGGGTTTTG	0.989 ± 0.022
AGGGTAAATA	1.0193 ± 0.00016
AGGGTAACGG	0.995 ± 0.028
AGGGTAATCA	0.993 ± 0.03
AGGGTACCTG	1.01 ± 0.015
AGGGTACTTG	1 ± 0.03
AGGGTAGATA	1 ± 0.044
AGGGTAGATT	0.977 ± 0.054
AGGGTAGCGA	1.03 ± 0.017
AGGGTAGCGG	0.955 ± 0.012
AGGGTAGCTA	0.958 ± 0.016
AGGGTAGGTC	1.06 ± 0.087
AGGGTATCGC	0.9932 ± 0.0065
AGGGTCAATC	1.04 ± 0.05
AGGGTCAGGT	1 ± 0.013
AGGGTCGGCG	1.01 ± 0.027
AGGGTGGAAT	1.068 ± 0.01
AGGGTGGGG	0.928 ± 0.076
AGGGTGGGGA	1.01 ± 0.036
AGGGTGTCGA	1.02 ± 0.012
AGGGTGTGCT	1.015 ± 0.0042
AGGGTTAAGG	1.017 ± 0.0078
AGGGTTACGA	0.976 ± 0.038

Sequence	switch fluorescence ratio
AGGGTTACGC	1.04 ± 0.11
AGGGTTATAA	0.969 ± 0.033
AGGGTTATGA	0.995 ± 0.021
AGGGTTCTTT	1 ± 0.029
AGGGTTGAAC	1 ± 0.023
AGGGTTGCGA	1.02 ± 0.025
AGGGTTTAAA	1 ± 0.036
AGGGTTTAGC	1.02 ± 0.032
AGGGTTTAGT	1 ± 0.01
AGGTAAGGGC	1.01 ± 0.015
AGGTAATAGT	1.03 ± 0.028
AGGTACACCT	1.08 ± 0.053
AGGTACGAGG	1.006 ± 0.003
AGGTACGATT	1.02 ± 0.034
AGGTACGGGA	1.03 ± 0.074
AGGTACTAGG	1.036 ± 0.0041
AGGTAGAATA	0.989 ± 0.031
AGGTAGAGTA	0.97 ± 0.034
AGGTAGGCGG	0.969 ± 0.055
AGGTAGGGAA	0.9928 ± 0.0037
AGGTAGGGGC	1.02 ± 0.026
AGGTAGGGGT	1.01 ± 0.02
AGGTATAAGG	1.02 ± 0.019
AGGTATACCT	1.014 ± 0.0028
AGGTATGGGG	0.998 ± 0.034

Sequence	switch fluorescence ratio
AGGTATTAGG	0.988 ± 0.041
AGGTCAGGCA	1.002 ± 0.0075
AGGTCCGCGA	2.62 ± 0.17
AGGTGAAGTT	1.02 ± 0.062
AGGTGAGATT	1.02 ± 0.018
AGGTGATTTT	0.991 ± 0.013
AGGTGCAGCA	1.06 ± 0.15
AGGTGCAGGC	0.863 ± 0.082
AGGTGCAGTG	1.015 ± 0.0042
AGGTGCGGGA	1.02 ± 0.052
AGGTGGCGTG	0.944 ± 0.022
AGGTGGCTAG	1.026 ± 0.0052
AGGTGGGCTG	0.963 ± 0.024
AGGTGGGGG	0.979 ± 0.015
AGGTGGGGGA	0.995 ± 0.031
AGGTGGGGTG	1.03 ± 0.023
AGGTGTACTG	1.03 ± 0.058
AGGTGTAGTG	0.987 ± 0.016
AGGTGTCGCG	1.01 ± 0.02
AGGTGTGCGC	1.01 ± 0.07
AGGTGTTCTA	1.02 ± 0.021
AGGTGTTGT	1.03 ± 0.053
AGGTGTTTTT	1.03 ± 0.032
AGGTTAAAA	1.03 ± 0.075
AGGTTACCGC	1.03 ± 0.048

Sequence	switch fluorescence ratio
AGGTTATAGG	1.05 ± 0.091
AGGTTATGGT	0.992 ± 0.052
AGGTTATTTG	0.978 ± 0.015
AGGTTCAGGC	0.9821 ± 0.0086
AGGTTCATTA	1.01 ± 0.023
AGGTTCCACG	0.996 ± 0.03
AGGTTCGTTC	0.97 ± 0.039
AGGTTCTGGG	1.01 ± 0.03
AGGTTCTTA	0.994 ± 0.06
AGGTTGAACG	0.985 ± 0.046
AGGTTGCATG	1.02 ± 0.079
AGGTTGGGTA	0.979 ± 0.015
AGGTTGGTGG	1 ± 0.016
AGGTTGTATC	1.01 ± 0.028
AGGTTGTTAA	1.0085 ± 0.0005
AGGTTTATCA	0.991 ± 0.028
AGGTTTATGC	0.977 ± 0.066
AGGTTTCGAG	0.997 ± 0.023
AGGTTTTGCA	0.991 ± 0.019
AGGTTTTGGT	1 ± 0.055
AGTAAAAAAG	1.042 ± 0.0073
AGTAAAATGT	1 ± 0.021
AGTAAAGGAA	0.999 ± 0.014
AGTAAAGTTG	0.991 ± 0.024
AGTAACAGCC	1.001 ± 0.0066

Sequence	switch fluorescence ratio
AGTAACTTGA	1 ± 0.013
AGTAAGGCTA	1 ± 0.051
AGTAAGGGCT	0.99 ± 0.015
AGTAAGGGTA	1.0185 ± 0.00081
AGTAAGTTTT	1.032 ± 0.0011
AGTAATAAGT	0.979 ± 0.047
AGTAATCGCT	0.985 ± 0.01
AGTAATTGGT	0.9954 ± 0.0088
AGTACGAGGA	1.04 ± 0.035
AGTACGGAAG	1.02 ± 0.024
AGTACTGTGG	0.996 ± 0.032
AGTAGAATCA	1.01 ± 0.026
AGTAGAATCG	0.992 ± 0.033
AGTAGATTAA	0.986 ± 0.011
AGTAGGGGTT	0.979 ± 0.02
AGTAGGTCTG	1.04 ± 0.046
AGTAGGTTAG	0.989 ± 0.04
AGTATAACGA	1.06 ± 0.016
AGTATAGGGT	0.972 ± 0.029
AGTATAGTAG	0.983 ± 0.019
AGTATATCGC	1 ± 0.022
AGTATATCTG	0.974 ± 0.02
AGTATCGAGC	1.02 ± 0.049
AGTATCTCTT	1.0161 ± 4.4e-05
AGTATGGGGT	0.996 ± 0.018

Sequence	switch fluorescence ratio
AGTATGTAAA	1.02 ± 0.017
AGTATGTATA	0.9957 ± 0.0083
AGTATGTTTC	1 ± 0.025
AGTATTCGGG	0.976 ± 0.058
AGTATTCTAT	1.004 ± 0.0034
AGTATTGTCT	1.039 ± 0.003
AGTATTGTTT	1.01 ± 0.02
AGTCAAAAAA	1.17 ± 0.3
AGTCAGGGTC	0.99 ± 0.032
AGTCAGTGAC	1.009 ± 0.0026
AGTCATATAG	1.062 ± 0.0056
AGTCATTAGG	1.03 ± 0.041
AGTCATTCTC	0.9841 ± 0.003
AGTCATTGTT	0.989 ± 0.012
AGTCCAAGGC	1.02 ± 0.065
AGTCCCCCTA	1.08 ± 0.069
AGTCCGGGAT	1.07 ± 0.044
AGTCCGTGCT	1.05 ± 0.044
AGTCCTTAAG	1 ± 0.025
AGTCGAAAGC	1.01 ± 0.059
AGTCGACTTT	0.997 ± 0.011
AGTCGCCTTT	1.02 ± 0.056
AGTCGGCGGA	0.998 ± 0.014
AGTCGGGAGG	0.945 ± 0.062
AGTCGGTAGG	1.02 ± 0.012
